Measured values: article PMC2754851
Read-outs that look alike come from different tables or passages of the source.

What was measured:
Test in all cases: pull-down
[1] = target: Doc1-4A APC/C (S. cerevisiae) (UniProt P53886)
[2] = target: Cdc27-A2 APC/C (APC/C with Cdc27 L579A) (S. cerevisiae) (UniProt P53886)
[3] = target: Doc1-4A APC/C (S. cerevisiae) (UniProt P53886); remark: listed apart in the source

Sequence of Doc1-4A APC/C (S. cerevisiae) (P53886 whole entry, looked up): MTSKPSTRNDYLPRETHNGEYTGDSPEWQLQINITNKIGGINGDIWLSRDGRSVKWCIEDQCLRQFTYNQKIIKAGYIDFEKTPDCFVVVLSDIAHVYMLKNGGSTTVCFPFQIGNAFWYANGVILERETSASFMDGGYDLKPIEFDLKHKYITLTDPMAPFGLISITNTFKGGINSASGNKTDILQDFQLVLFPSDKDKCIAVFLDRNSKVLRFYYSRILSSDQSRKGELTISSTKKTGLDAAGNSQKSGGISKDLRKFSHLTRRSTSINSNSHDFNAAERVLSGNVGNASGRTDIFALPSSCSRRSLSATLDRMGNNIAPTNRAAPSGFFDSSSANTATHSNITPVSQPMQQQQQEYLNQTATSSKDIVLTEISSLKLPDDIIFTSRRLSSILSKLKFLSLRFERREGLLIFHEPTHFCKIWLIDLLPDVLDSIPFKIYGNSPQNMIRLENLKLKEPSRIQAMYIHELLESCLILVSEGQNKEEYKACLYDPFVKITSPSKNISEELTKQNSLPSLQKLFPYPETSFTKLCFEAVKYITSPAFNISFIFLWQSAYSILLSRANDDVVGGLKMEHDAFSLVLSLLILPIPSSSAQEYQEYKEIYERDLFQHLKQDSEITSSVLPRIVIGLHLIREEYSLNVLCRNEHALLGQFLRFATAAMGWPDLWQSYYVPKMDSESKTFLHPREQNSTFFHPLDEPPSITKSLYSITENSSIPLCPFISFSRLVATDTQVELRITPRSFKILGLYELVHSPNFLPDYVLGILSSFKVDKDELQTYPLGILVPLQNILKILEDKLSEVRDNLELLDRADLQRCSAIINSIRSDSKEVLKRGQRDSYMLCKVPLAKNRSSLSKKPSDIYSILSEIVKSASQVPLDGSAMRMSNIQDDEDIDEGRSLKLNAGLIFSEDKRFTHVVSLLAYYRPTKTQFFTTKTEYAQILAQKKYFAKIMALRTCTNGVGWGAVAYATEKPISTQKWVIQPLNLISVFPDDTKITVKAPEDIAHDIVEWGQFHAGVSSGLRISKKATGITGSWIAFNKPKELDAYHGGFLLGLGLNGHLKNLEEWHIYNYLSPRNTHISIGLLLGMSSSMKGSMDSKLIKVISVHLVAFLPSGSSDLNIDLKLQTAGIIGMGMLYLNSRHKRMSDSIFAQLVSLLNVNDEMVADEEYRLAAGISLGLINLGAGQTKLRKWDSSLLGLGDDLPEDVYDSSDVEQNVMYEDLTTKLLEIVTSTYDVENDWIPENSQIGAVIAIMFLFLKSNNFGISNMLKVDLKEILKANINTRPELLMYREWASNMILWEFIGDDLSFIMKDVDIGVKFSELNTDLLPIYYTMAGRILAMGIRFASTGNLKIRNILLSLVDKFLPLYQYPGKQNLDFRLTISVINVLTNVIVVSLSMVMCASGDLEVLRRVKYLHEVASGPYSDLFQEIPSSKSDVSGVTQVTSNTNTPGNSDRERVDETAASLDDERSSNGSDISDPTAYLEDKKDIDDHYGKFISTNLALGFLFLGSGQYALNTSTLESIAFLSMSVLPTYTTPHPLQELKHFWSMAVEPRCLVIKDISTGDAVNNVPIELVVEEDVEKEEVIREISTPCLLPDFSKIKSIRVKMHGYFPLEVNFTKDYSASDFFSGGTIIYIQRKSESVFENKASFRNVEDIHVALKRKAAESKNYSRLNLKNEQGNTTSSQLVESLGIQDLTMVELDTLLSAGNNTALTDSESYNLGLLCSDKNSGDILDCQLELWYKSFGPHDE

- half-time of dissociation [1]: 22 min
- half-time of dissociation [2]: 10 min
- koff [2]: 0.0011 s⁻¹
- half-time of dissociation [3]: 20 min
B1: in vitro translated Cdh1 (natural protein)
chain: MSTNLNPFMNNTPSSSPLKGSESKRVSKRPISSSSSASLLSSPSRRSRPSTVYGDRYIPSRTDIDFNSIVSISSMASVPALNPSSTEDQVEYQKERQAHETYNTLLKNELFGEMLSKDTVGSESSIDRIKNTRPSTRGNVHAENTTRHGYELERVSTPPPEAAGLEEFSPHSTPVTPRRLFTSQQDEITRPSSNSVRGASLLTYQQRKGRRLSAASLLQSQFFDSMSPVRPDSKQLLLSPGKQFRQIAKVPYRVLDAPSLADDFYYSLIDWSSTDVLAVALGKSIFLTDNNTGDVVHLCDTENEYTSLSWIGAGSHLAVGQANGLVEIYDVMKRKCIRTLSGHIDRVACLSWNNHVLTSGSRDHRILHRDVRMPDPFFETIESHTQEVCGLKWNVADNKLASGGNDNVVHVYEGTSKSPILTFDEHKAAVKAMAWSPHKRGVLATGGGTADRRLKIWNVNTSIKMSDIDSGSQICNMVWSKNTNELVTSHGYSKYNLTLWDCNSMDPIAILKGHSFRVLHLTLSNDGTTVVSGAGDETLRYWKLFDKPKAKVQPNSLIFDAFNQIR
modifications: 35S label
